Assay results as given in publication PMC10643153.
“And” between values parts separate entries of the source, which are not always exact repeats. Equal entries are not always repeated.

Columns and labels:
[1] = target: recombinant goldfish AdipoQ (His-tagged gAdipoQ) (goldfish (Carassius auratus)); assay: native gel or EMSA; self-association; protein electrophoresis in native gel under non-denaturing conditions, Coomassie blue staining; parallel SDS-PAGE as reference for the monomer
[2] = target: recombinant goldfish AdipoQ (His-tagged gAdipoQ) (goldfish (Carassius auratus)); assay: SEC-MALS; self-association; top five fractions of the SEC peak pooled, 200-µl sample on a Superose 12 10/300 GL column linked with a DynaPro NanoStar instrument; apparent MW in solution

stoichiometry N [1]: 3 and 6
stoichiometry N [2]: 3
Substance: recombinant goldfish AdipoQ (His-tagged gAdipoQ) (domain or fragment)
